According to patent US20250145716A1 (RAKUTEN MEDICAL, published 2025):

Key:
[1] = target: T1, human PD-L1 expressed on cells (human, UniProt Q9NZQ7 19-290); experiment: cell-based or functional assay
[2] = target: T2, PD-L1-His (Acro Cat PDL-H5229) (human, UniProt Q9NZQ7 19-238); experiment: SPR (Biacore 4000) as in Example 3, conjugate captured, PD-L1-His analyte, 37° C.
T2 construct: also called human PD-L1 (SPR analyte); not shown: His tag
Protocol: (§1) The binding affinities of the generated antibodies to human PD-L1 were determined by surface plasmon resonance. […] PD-L1-His (Acro Cat PDL-H5229) was tested for binding in a 3-fold titration series up to 100 nM. Data were collected in HBS-P (pH 7.4) at 37° C. and 25° C.
(§2) The binding affinities of the generated anti-PD-L1 conjugates were determined by surface plasmon resonance, as described in Example 3.

6xHis-tagged huPD-L1 [3] = target: T3, 6xHis-tagged huPD-L1 (human, UniProt Q9NZQ7 19-238); experiment: ELISA, plate-coated 6xHis huPD-L1, OD 450 nm
T3 construct: also called human PD-L1 (RD Systems 9049-B7); extracellular domain of human PD-L1 fused to a His tag; not shown: 6xHis tag
Protocol: (§3) Hybridoma supernatants were tested for binding to huPD-L1, cyPD-L1, and muPD-L1 by ELISA. Briefly, 30 μL 6xHis-tagged huPD-L1, cyPD-L1, or muPD-L1 (1 μg/mL in PBS) were immobilized in wells of a 96-well assay plate overnight at 4° C. After washing and blocking steps, 30 μL of antibody supernatant were added to the plate and incubated at room temperature for 1 hr. Bound human antibody was detected using horseradish peroxidase (HRP)-conjugated goat anti-human Fc (Invitrogen Cat. No. 109-035-097; diluted 1:5000) or goat anti-mouse Fc HRP (Invitrogen Cat. No. 115-035-071) as a control. Bound antibody was detected with 1-Step Ultra™ TMB-ELISA Substrate (ThermoFisher Scientific Cat. No. 34029). When the reaction was complete the reaction was stopped, and the plate was read at 450 nm.

[4] = target: T1, human PD-L1 expressed on cells; experiment: flow cytometry, PD-L1-expressing CHO cells, MFI (FITC)
Protocol: Wild-type (wt) Chinese hamster ovary (CHO) cells (ATCC) and CHO cells engineered to express huPD-L1 (BPS Bioscience) were seeded at 200,000 cells in 50 μL FACS buffer (PBS containing 1% FBS and 5 mM EDTA) per well of a 96-well plate. Cell viability was assessed by adding 50 μL 2×Zombie Violet (BioLegend). Dead cell controls were also prepared and 2×Zombie violet was added. After incubating 20-30 minutes at room temperature, protected from light, 150 μL FACS buffer were added to each well. The plates were centrifuged, and the supernatant was aspirated. […] The plates were incubated 30 minutes on ice, protected from light. 150 μL FACS buffer were then added to each well and the plate was centrifuged. The supernatant was removed and the cells were washed three times in 200 μL FACS buffer. […] The cells were incubated 30 minutes on ice, protected from light. 150 μL FACS buffer were then added to each well and the plate was centrifuged. Supernatant was removed and the cells were washed twice with 200 μL FACS buffer. The cells were then resuspended in FACS buffer and analyzed by CytoFLEX using the appropriate channels. After gating for whole, single, live cells, the MFI in the APC channel (or FITC channel for human control samples) was normalized to the signal from hybridoma media alone (or isotype control for human control). MFI fold over media alone was determined for each clone supernatant tested.

[5] = target: T2, PD-L1-His (Acro Cat PDL-H5229); experiment: SPR (Biacore 4000) as in Example 3, conjugate captured, PD-L1-His analyte, 25° C.
Protocol: as §1, §2

[6] = target: T1, human PD-L1 expressed on cells; experiment: cell-based or functional assay; remark: listed apart in the source
6xHis-tagged cyPD-L1 [7] = target: T4, 6xHis-tagged cyPD-L1 (cynomolgus monkey, UniProt Q9NZQ7 19-238 (human entry)); experiment: ELISA, plate-coated 6xHis cyPD-L1, OD 450 nm
T4 construct: The assay text says only '6xHis-tagged cyPD-L1'; also called cynomolgus PD-L1; not shown: 6xHis tag
Protocol: as §3

6xHis-tagged cyPD-L1 [8] = target: T4, 6xHis-tagged cyPD-L1; experiment: ELISA, plate-coated 6xHis cyPD-L1, A450
Protocol: as §3
(§4) Anti-PD-L1 antibodies, described in Example 1A and manufactured substantially as described in Example 1B, were tested for to huPD-L1 and cyPD-L1 by ELISA substantially as described in Example 1A, using 12 dilutions of antibody ranging from 1 ng/ml to 3 mg/mL.

6xHis-tagged huPD-L1 [9] = target: T3, 6xHis-tagged huPD-L1; experiment: ELISA, plate-coated 6xHis huPD-L1, A450
Protocol: as §3, §4

T2 sequence (Q9NZQ7 19-238 limits assumed): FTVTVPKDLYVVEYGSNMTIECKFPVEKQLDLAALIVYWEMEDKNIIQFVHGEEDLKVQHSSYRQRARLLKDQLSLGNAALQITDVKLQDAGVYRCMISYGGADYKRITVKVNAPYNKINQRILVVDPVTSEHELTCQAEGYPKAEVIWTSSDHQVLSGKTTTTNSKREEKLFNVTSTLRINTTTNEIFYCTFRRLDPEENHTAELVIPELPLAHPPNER
T3 sequence (Q9NZQ7 19-238): as the sequence (Q9NZQ7 19-238 limits assumed) above
T4 sequence (Q9NZQ7 other isoform, or with tags, fused parts or gaps): as the sequence (Q9NZQ7 19-238 limits assumed) above, with A33T, A34S, S62N, R68Q, Q82R, F173L, T185A, T192I, H215L counted along it
T1 sequence (Q9NZQ7 19-290): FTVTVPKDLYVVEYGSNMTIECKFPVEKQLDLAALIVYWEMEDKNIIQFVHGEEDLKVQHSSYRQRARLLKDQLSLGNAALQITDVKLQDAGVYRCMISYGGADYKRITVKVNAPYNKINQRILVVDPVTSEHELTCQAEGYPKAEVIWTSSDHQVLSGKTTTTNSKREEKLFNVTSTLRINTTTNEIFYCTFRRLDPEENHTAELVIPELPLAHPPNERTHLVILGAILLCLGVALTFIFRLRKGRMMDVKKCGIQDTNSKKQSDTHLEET

B1: 1P4-IR700 (antibody, V domains shown)
VH: QVQLVESGGGVVQPGRSLRLSCAASGFTFSNYGMHWVRQAPGKGLEWVSLILYDGSNKYYADSVKGRFTISRDNSKNTLYLQMNSLRAEDTAVYYCARDRVWLDVWGKGTTVTVSS
VL: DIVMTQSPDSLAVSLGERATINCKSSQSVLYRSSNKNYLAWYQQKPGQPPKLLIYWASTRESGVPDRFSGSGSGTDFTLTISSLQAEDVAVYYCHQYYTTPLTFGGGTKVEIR
modifications: IRDye 700DX (IR700) attached via NHS ester; sites not stated; IRDye 700DX (IR700) attached via NHS ester; sites not stated; DAR 2.9 per antibody
notes: also called 1P4-IR700 conjugate; anti-PD-L1-IR700 conjugate
[1]
  EC50 of luminescence (RLU), PD-1:PD-L1 Blockade Bioassay (PD-L1 aAPC/CHO-K1 cells with PD-1 Effector Jurkat NFAT-luciferase cells): 0.855 µg/mL
[2]
  Kd: 23 nM
  koff: 0.011 s⁻¹
  kon: 470000 M⁻¹ s⁻¹
6xHis-tagged huPD-L1 [3]
  EC50: 0.189 µg/mL
[4]
  EC50: 0.133 µg/mL
[5]
  Kd: 16 nM
  koff: 0.0056 s⁻¹
  kon: 350000 M⁻¹ s⁻¹
[6]
  EC50 of photoimmunotherapy-induced killing of A431 cells (Cell Tox Green, 128 J/cm^2): 0.103 µg/mL
6xHis-tagged cyPD-L1 [7]
  EC50: 0.193 µg/mL

B2: 2M5 (antibody, V domains shown)
VH: EVQLVESGGGLVKPGGSLRVSCAASGFTLSSYSMNWVRQAPGKGLEWVSSISSSSSYIYYADSVKGRFTISRDNAKNLLYLQMNSLRAEDTAVYYCAREGGAARPSWFDPWGQGTLVTVSS
VL: QAVVTQESALTTSPGETVTLTCRSSTGAVTTSNYANWVQEKPDHLFTGLIGGTNNRAPGVPARFSGSLIGDKAALTITGAQTEDEAIYFCALWYRNHWVFGGGTKLTVL
6xHis-tagged cyPD-L1 [8]
  Absolute IC50: 0.234 µg/mL
6xHis-tagged huPD-L1 [9]
  Absolute IC50: 0.788 µg/mL

B3: 2M1 (antibody, V domains shown)
VH: EVQLVESGGGLVKPGGSLRLSCAASGFTFSSYTMNWVRQAPGKGLEWVSSITSSTSYIYYADSVKGRFTISRDNAKNSLYLQMNSLRAEDTSVYYCVRDWSIAARGAWFDPWGQGTLVTVSS
VL: DIQMTQSPSSVSASVGDRVTITCRASQGIGSWLAWYQQKPGKAPKFLIYAASSLQGGVPSRFSGSGSGTDFTLTISSLQPEDFATYYCQQANSFPLTFGGGTKVEIK
6xHis-tagged cyPD-L1 [8]
  Absolute IC50: 0.559 µg/mL
6xHis-tagged huPD-L1 [9]
  Absolute IC50: 0.428 µg/mL

B4: 2M2 (antibody, V domains shown)
VH: QVQLVQSGAEVKKPGASVKVSCKASGYTFTNYGISWVRQAPGQGLEWMGWISAYNGHTNYAQKVQGRVTMTTDTSTSTAFMELRSLRSDDSAVYYCARGTSGDYWGQGTLVTVSS
VL: not shown
6xHis-tagged cyPD-L1 [8]
  Absolute IC50: 0.167 µg/mL
6xHis-tagged huPD-L1 [9]
  Absolute IC50: 0.0838 µg/mL

B5: 2M3 (antibody, V domains shown)
VH: EVQLVESGGGFVQTGGSLRLSCAASGFNFRSYDMHWVRQVIGKGLEWVSGIGPGGDTYYPGSVKGRFTISRENAKNSLYLQMNSLRAGDTAVYYCAREQFEGHYFDYWGQGTLVTVSS
VL: DIQMTQSPSSVSASVGDRVNITCRASQGISSWLAWYQQKPWKAPKLLIYTASSLQSGVPSRFSGSGSGTDFTLTISSLQPEDFATYYCQQANSFPITFGQGTRLEIK
6xHis-tagged cyPD-L1 [8]
  Absolute IC50: 0.672 µg/mL
6xHis-tagged huPD-L1 [9]
  Absolute IC50: 0.788 µg/mL

B6: 3B1 (antibody, V domains shown)
VH: QIQLVQSGPELKKPGETVKISCKASGYDFTNYGMNWVKQAPGKGLKWMGYINTYTGEPAYADDFKGRFAFSLETSARTAYLRINNLKNEDTATYFCATRAYYGHYLAYWGQGTLVTVSA
VL: DVLMTQTPLSLPVSLGDQASISCRSSQRIVHSNGNTYLEWYLQKPGQSPKLLIYKVSNRFSGVPDRFSGSGSGTDFTLKISRVEAEDLGVYYCFQGSHVPYTFGGGTKLEIK
6xHis-tagged cyPD-L1 [8]
  Absolute IC50: 0.0569 µg/mL
6xHis-tagged huPD-L1 [9]
  Absolute IC50: 0.0498 µg/mL

B7: 3B2 (antibody, V domains shown)
VH: EVQLQESGPSLVKPSQTLSLTCSVTGDSITSGYWNWIRKFPGNKLEYMGYISYTGSTYYNPSLKSRISITRDTSKNQYYLQLDSVTTEDTATYYCARKGGWLLPFAYWGQGTLVTVSA
VL: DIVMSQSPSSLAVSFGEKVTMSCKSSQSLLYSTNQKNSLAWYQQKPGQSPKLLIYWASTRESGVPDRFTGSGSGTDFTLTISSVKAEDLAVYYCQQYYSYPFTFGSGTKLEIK
6xHis-tagged cyPD-L1 [8]
  Absolute IC50: 0.341 µg/mL
6xHis-tagged huPD-L1 [9]
  Absolute IC50: 0.225 µg/mL

B8: 3B4 (antibody, V domains shown)
VH: EVQLQESGPSLVKPSQTLSLTCSVTGDSITSGYWNWIRKFPGNKLESMGYISYTGSTYYNPSLKSRLSITRDTSKNQFYLQLNSVTTEDTATYYCASGLLWLAWFAYWGQGTLVTVSA
VL: DIVMSQSPSSLAVSVGEKVTMSCKSSQSLLYSSNQKNSLAWYQQKPGQSPKLLIYWASTRESGVPDRFTGSGSGTDFTLTISSVRAEDLAVYYCQQYYGYPFTFGGGTKLEIK
6xHis-tagged cyPD-L1 [8]
  Absolute IC50: 0.106 µg/mL
6xHis-tagged huPD-L1 [9]
  Absolute IC50: 0.152 µg/mL

B9: 3B5 (antibody, V domains shown)
VH: QIQLVQSGPELKKPGETVKISCKASGYDFTNYGMNWVKQAPGKGLKWMGYINTYTGEPAYADDFKGRFAFSLETSARTAYLRINNLKNEDTATYFCATRAYYGHYLAYWGQGTLVTVSA
VL: QIVLTQSPAIMSASPGEKVTITCSASSSVSYMHWFQQKPGTSPKLWIYSTSNLASGVPARFSGSGSGTSYSLTISRMEAEDAATYYCQQRSSYPFTFGSGTKLEIK
6xHis-tagged cyPD-L1 [8]
  Absolute IC50: 0.325 µg/mL
6xHis-tagged huPD-L1 [9]
  binding result: binds

B10: 3B6 (antibody, V domains shown)
VH: EVKLVESGGGLVQPGGSLRLSCGTSGFTFSDFYVEWVRQPPGKRLEWIAASRNKVNDYTTEYSESVKGRFIVSRDTSQNILYLQMNALRAEDSAIYYCARNVPWDGWYFDVWGAGTAVTVSS
VL: DIVMTQSQKFMSTSVGDRVSITCKASQNVRTAVAWFQQKPGQSPKALIYLASTRHTGVPDRFTGSGSGTDFTLTISNVQSEDLADYFCLQHWNYPRTFGGGTKLEIK
6xHis-tagged cyPD-L1 [8]
  Absolute IC50: 0.246 µg/mL
6xHis-tagged huPD-L1 [9]
  Absolute IC50: 0.33 µg/mL

B11: 1P4 with effector knockout (EKO) mutations L234F/L235E/P331S (antibody, V domains shown)
VH: QVQLVESGGGVVQPGRSLRLSCAASGFTFSNYGMHWVRQAPGKGLEWVSLILYDGSNKYYADSVKGRFTISRDNSKNTLYLQMNSLRAEDTAVYYCARDRVWLDVWGKGTTVTVSS
VL: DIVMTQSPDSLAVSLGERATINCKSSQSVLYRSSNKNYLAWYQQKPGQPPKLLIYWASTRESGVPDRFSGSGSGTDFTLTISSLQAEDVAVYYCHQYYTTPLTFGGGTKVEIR
notes: Same variable regions as 1P4; also called 1P4-EKO; 1P4 (L234F/L235E/P331S)
[4]
  EC50: 0.0455 µg/mL

B12: 1P9 with effector knockout mutations L234F/L235E/P331S (antibody, V domains shown)
VH: EVQLVESGGGLVQPGGSLRLSCAASGFTFSTYWMSWVRQAPGKGLEWVANIKQDGGERYYVDSVKGRFTISRDNAKSSLYLQMNSLRAEDTALYYCARLRLYSDYEDYWGQGTLVTVSS
VL: DIQMTQSPSSVSASVGDRVTITCRASQGISSWLAWYQQKPGKAPKLLIYSVSSLQSGVPSRFSGSGSGTDFTLTISSLQPEDSATYYCQQANSLPPTFGGGTKVEIK
notes: Same variable regions as 1P9; also called 1P9-EKO; 1P9 (L234F/L235E/P331S)
[4]
  EC50: 0.0186 µg/mL

B13: 1P4-EKO-IR700 conjugate (antibody, V domains shown)
VH: QVQLVESGGGVVQPGRSLRLSCAASGFTFSNYGMHWVRQAPGKGLEWVSLILYDGSNKYYADSVKGRFTISRDNSKNTLYLQMNSLRAEDTAVYYCARDRVWLDVWGKGTTVTVSS
VL: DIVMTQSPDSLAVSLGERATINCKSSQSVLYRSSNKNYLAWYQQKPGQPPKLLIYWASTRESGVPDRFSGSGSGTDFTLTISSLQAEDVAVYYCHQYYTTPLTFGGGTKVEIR
modifications: IRDye 700DX (IR700) attached via NHS ester; sites not stated; IRDye 700DX (IR700) attached via NHS ester; sites not stated; DAR 2.7 per antibody
notes: also called 1P4-EKO (conjugate); anti-PD-L1-IR700 conjugate with effector knock-out Fc region
[4]
  EC50: 0.145 µg/mL

B14: 1P9-EKO-IR700 conjugate (antibody, V domains shown)
VH: EVQLVESGGGLVQPGGSLRLSCAASGFTFSTYWMSWVRQAPGKGLEWVANIKQDGGERYYVDSVKGRFTISRDNAKSSLYLQMNSLRAEDTALYYCARLRLYSDYEDYWGQGTLVTVSS
VL: DIQMTQSPSSVSASVGDRVTITCRASQGISSWLAWYQQKPGKAPKLLIYSVSSLQSGVPSRFSGSGSGTDFTLTISSLQPEDSATYYCQQANSLPPTFGGGTKVEIK
modifications: IRDye 700DX (IR700) attached via NHS ester; sites not stated; IRDye 700DX (IR700) attached via NHS ester; sites not stated; DAR 2.5 per antibody
notes: also called 1P9-EKO (conjugate); anti-PD-L1-IR700 conjugate with effector knock-out Fc region
[4]
  EC50: 0.0174 µg/mL
